From the RNAGym collection of RNA variant scans (doi:10.1093/nar/gkz1192)

B1: CPEB3 Ribozyme (parent)
chain: UAACAGGGGGCCACAGCAGAAGCGUUCACGUCGCAGCCCCUGUCAGAUUCUGGUGAAUCUGCGAAUUCUGCUGUAUAUCUC

Variants of: B1
Assay: self-cleavage, relative activity (ratio to wild type); higher = more cleavage; in vitro, sequencing
In short: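 Relative activity compares each variant's cleaved/total read fraction with that of the unmutated ribozyme. To get these fractions, barcoded CPEB3 ribozyme libraries from rounds of error-prone PCR were transcribed with T7 RNA polymerase for 5 hours at 37°C and then given 15 min of DNase I treatment before EDTA was added. The RNAs were reverse transcribed with template switching and sequenced on Illumina, and DNA sequencing linked barcodes to variants. A minimum of 5 reads applied, and three batches were averaged.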

Variant	self-cleavage
UAACAGGGGGCCACAGCAGAAGCGUUCAAGUCGCAGCCCCUGUCAGAUUCUGGUGAAUCUGUGAAUUCUGCUGUAUAUCUC [C29A C62U]	0.15
UAACAGGGGGCCACAGCAGAAGCGUUCAAGUCGCAGCCCCUGUCAGAUUCUGGUGAGUCUGCGAAUUCUGCUGUAUAUCUC [C29A A57G]	0.33
UAACAGGGGGCCACAGCAGAAGCGUUCAAGUAGCAGCCCCUGUCAGAUUCUGGUGAAUCUGCGAAUUCUGCUGUAUAUCUC [C29A C32A]	0.32
UAACAGGGGGCCACAGCAGAAGCGUUCAAGUCGCAGCCCCUGUCAGAUUCUGGUGAAUCUGCGAAUUAUGCUGUAUAUCUC [C29A C68A]	0.23
UAACAGGGGGCCACAGCAGAAGCGUUCAAGUCGCAGCCCCGGUCAGAUUCUGGUGAAUCUGCGAAUUCUGCUGUAUAUCUC [C29A U41G]	0.43
UAACAGGGGGCCACAGCAGAAGCGUUCAAGUCGCAGCCCCAGUCAGAUUCUGGUGAAUCUGCGAAUUCUGCUGUAUAUCUC [C29A U41A]	0.37
UAACAGGGGGCCACAGCAGAAGCGUUCAAGUCGCAGCCCCCGUCAGAUUCUGGUGAAUCUGCGAAUUCUGCUGUAUAUCUC [C29A U41C]	0.39
UAACAGGGGGCCACAGCAGAAGCGUUCUCGUCGCAGCCCCUGUCAGAUUCUGGAGAAUCUGCGAAUUCUGCUGUAUAUCUC [A28U U54A]	0.71
UAACAGGGGGCCACAGCAGAAGCGUUCUCGUCGCAGCCCCUGUCAGAUUCUGGCGAAUCUGCGAAUUCUGCUGUAUAUCUC [A28U U54C]	0.78
UAACAGGGGGCCACAGCAGAAGCGUUCAAGUCGCAGCCCCUGUCAGGUUCUGGUGAAUCUGCGAAUUCUGCUGUAUAUCUC [C29A A47G]	0.4
UAACAGGGGGCCACAGCAGAAGCGUUCAAGUCGCAGCCCCUGUCAGAUUCUGGUAAAUCUGCGAAUUCUGCUGUAUAUCUC [C29A G55A]	0.31
UAACAGGGGGCCACAGCAGAAGCGUUCUCGUCGCAGCCCCUGUCAGAUUCUGGUGAAUCUGCGAAUUCUGCUGUAUAACUC [A28U U78A]	0.51
UAACAGGGGGCCACAGCAGAAGCGUUCUCGUCGCAGCCCCUGUCAGAUUCUGGUGAAUCUGCGAAUUCUGCUGUAUACCUC [A28U U78C]	0.73
UAACAGGGGGCCACAGCAGAAGCGUUCUCGUCGCAGCCCCUGUCAGAUUCUGGUGAAUCUGCGAAUUCUGCUGUAUAGCUC [A28U U78G]	0.97
UAACAGGGGGCCACAGCAGAAGCGUUCUCGUCGCAGCCCCUGUCAGAUUCUGGUGAAUCUGCGAAUUCUGCUGUAAAUCUC [A28U U76A]	0.87
UAACAGGGGGCCACAGCAGAAGCGUUCUCGUCGCAGCCCCUGUCAGAUUCUGGUGAAUCUGCGAAUUCUGCUGUACAUCUC [A28U U76C]	0.88
UAACAGGGGGCCACAGCAGAAGCGUUCAAGUCGCAGCCCCUGUCAGAUUCUGGUGAAUUUGCGAAUUCUGCUGUAUAUCUC [C29A C59U]	0.54

Variant	self-cleavage
UAACAGGGGGCCACAGCAGAAGCGUUCAAGUCGCAGCCCCUGUCAGAUUCUGGUGGAUCUGCGAAUUCUGCUGUAUAUCUC [C29A A56G]	0.43
UAACAGGGGGCCACAGCAGAAGCGUUCUCGUCGCAGCCCCUGUCAGAUUCUGGUGAAUCUGCGAAUUCUGCCGUAUAUCUC [A28U U72C]	0.88
UAACAGGGGGCCACAGCAGAAGCGUUCUCGUCGCAGCCCCUGUCAGAUUCUGGUGAAUCUGCGAAUUCUGCGGUAUAUCUC [A28U U72G]	0.89
UAACAGGGGGCCACAGCAGAAGCGUUCUCGUCGCAGCCCCUGUCAGAUUCUGGUGAAUCUGCGAAUUCUGCAGUAUAUCUC [A28U U72A]	0.55
UAACAGGGGGCCACAGCAGAAGCGUUCAAGUCGCAGCCCCUGUCAGAUUCUGGUGAAUCUGCGAAUUCUGCUGUGUAUCUC [C29A A75G]	0.38
UAACAGGGGGCCACAGCAGAAGCGUUCAAGUCGCUGCCCCUGUCAGAUUCUGGUGAAUCUGCGAAUUCUGCUGUAUAUCUC [C29A A35U]	0.51
UAACAGGGGGCCACAGCAGAAGCGUUCAAGUCGCGGCCCCUGUCAGAUUCUGGUGAAUCUGCGAAUUCUGCUGUAUAUCUC [C29A A35G]	1.11
UAACAGGGGGCCACAGCAGAAGCGUUCAAGUCGCAGCCCCUGUCAGAUUCUGGUGAAUCUGCGAAUUCUGCUGUAUUUCUC [C29A A77U]	0.33
UAACAGGGGGCCACAGCAGAAGCGUUCAAGUCGCAGCCCCUGUCAGAUUCUGGUGAAUCUGCGAAUUCUGCUGUAUGUCUC [C29A A77G]	0.46
UAACAGGGGGCCACAGCAGAAGCGUUCAAGUCGCAGCCCCUGUCAGAUUCUGGUGAAUCUGCGAACUCUGCUGUAUAUCUC [C29A U66C]	0.29
UAACAGGGGGCCACAGCAGAAGCGUUCAAGUCGCAGCCCCUGUCAGAUUCUGGUGAAUCUGCUAAUUCUGCUGUAUAUCUC [C29A G63U]	0.59
UAACAGGGGGCCACAGCAGAAGCGUUCUCGUCGCAGCCCCUGUCAGAUUCUGGUGAAUCUGCGAAUUCUGCUGAAUAUCUC [A28U U74A]	1.19
UAACAGGGGGCCACAGCAGAAGCGUUCUCGUCGCAGCCCCUGUCAGAUUCUGGUGAAUCUGCGAAUUCUGCUGCAUAUCUC [A28U U74C]	0.87
UAACAGGGGGCCACAGCAGAAGCGUUCAAGUCGCAGCCCCUGUCAGACUCUGGUGAAUCUGCGAAUUCUGCUGUAUAUCUC [C29A U48C]	0.11
UAACAGGGGGCCACAGCAGAAGCGUUCAAGUCGCAGCCCCUGUCAGAAUCUGGUGAAUCUGCGAAUUCUGCUGUAUAUCUC [C29A U48A]	0.09
UAACAGGGGGCCACAGCAGAAGCGUUCAAGUCGCAGCCCCUGUCAGAUUCUGGUGAAUCUGCGAAUCCUGCUGUAUAUCUC [C29A U67C]	0.11
UAACAGGGGGCCACAGCAGAAGCGUUCAAGUCGCAGCCCCUGUCAGAUUCUGGUGAAUCUGCGAAUACUGCUGUAUAUCUC [C29A U67A]	0.46
